# Assay results as given in patent publication US20190127438A1 (AFFIRIS, published 2019).
# What was measured:
# [1] = target: T1, human IgE (NBS-00911-0-100) (human, UniProt P01854-1 1-428); assay: capture ELISA: adsorber on a capturing antibody, 1 µg/ml IgE, anti IgE-HRPO
# T1 construct: Bought reagent; also called soluble IgE
# Method: Protease resistant A43-FceRIa adsorber has similar affinity, avidity and specificity to IgE when compared to wild type FceRIa or prior art single chain antibody scFv12 (WO 2012/140214 A1) when comparing IgE binding by capture ELISA. Plates were coated with capturing antibody, after blocking HEK cell-purified recombinant protein derived from ScFv12 and FceRIa transfected cells, coated protein was incubated for 1 hour at RT. 1 μg/ml IgE (NBS-00911-0-100), trapped for 1 h/RT and detected for IgE binding using 1 μg/ml anti IgE-HRPO mAB (Novus Biologicals NBP1-74934) for 1 hour at RT.
# [2] = target: T1, human IgE (NBS-00911-0-100); assay: SPR (Biacore 2000, 25 °C), adsorber captured by anti-Tag mAB, IgE 0.5-64 nM as analyte, 1:1 model
# Method: The surface of a Streptavidine (SA) sensor chip (GE Healthcare Biacore, Cat. Nr. BR-1000-32) was prepared by three injections with 20 μl of 50 mM NaOH following a 200 μl injection of the biotinylated anti-Tag-mAB (Abcam ab10241) diluted to 2 μg/ml in HBS-EP (0.01 M HEPES, 0.15 M NaCl, 3 mM EDTA, 0.005% (v/v) surfactant P20 (pH 7.4) (GE Healthcare Cat. Nr. BR-1001-88) resulting in an immobilization level of ˜2500 RU for capturing on flow cell 4. Free SA-binding sites were saturated by two consecutive 100 μl injections of 1 mM D-Biotin (Sigma #47868). Flow cell 3 was saturated with free D-Biotin and served as reference cell. The capturing level of FceRIa variants and of the ScFv12 required to obtain a maximal response of 100 RU of IgE binding was calculated to be 75 RU and 80 RU, respectively. Therefore FceRIa, A43-FceRIa and scFv12 were diluted in HBS-EP and injected into flow cell 3 and 4 (30 μl/min) until the immobilization level of 90 RU was reached. After a stabilization time of 10 min with injection of running buffer, the final capturing level of 75 and 80 RU respectively were obtained. Finally the individual interactions of FceRIa, A43-FceRIa and scFv12 with IgE (NBS-00911-0-100) diluted in HBS-EP running buffer at 2-fold increasing concentrations (starting concentration, 0.5 nM; maximum concentration, 64 nM) were assessed with an IgE-association phase of 3 min at a flow rate of 30 μl/min. The dissociation phase was investigated by injection of HBS-EP for 30 min at a flow rate of 30 μl/min. The sensor chip surface was regenerated by injecting 15 μl of 10 mM Glycine-HCl pH 1.8 at the same. The dissociation constant (KD-Value), on-rate (ka) and off-rate (kd) were calculated with BIAevaluation 4.1 (GE Healthcare Biacore) using a 1:1 interaction model. All measurements were performed on a Biacore 2000 device at 25° C.
# T1 sequence (P01854 other isoform, or with tags, fused parts or gaps): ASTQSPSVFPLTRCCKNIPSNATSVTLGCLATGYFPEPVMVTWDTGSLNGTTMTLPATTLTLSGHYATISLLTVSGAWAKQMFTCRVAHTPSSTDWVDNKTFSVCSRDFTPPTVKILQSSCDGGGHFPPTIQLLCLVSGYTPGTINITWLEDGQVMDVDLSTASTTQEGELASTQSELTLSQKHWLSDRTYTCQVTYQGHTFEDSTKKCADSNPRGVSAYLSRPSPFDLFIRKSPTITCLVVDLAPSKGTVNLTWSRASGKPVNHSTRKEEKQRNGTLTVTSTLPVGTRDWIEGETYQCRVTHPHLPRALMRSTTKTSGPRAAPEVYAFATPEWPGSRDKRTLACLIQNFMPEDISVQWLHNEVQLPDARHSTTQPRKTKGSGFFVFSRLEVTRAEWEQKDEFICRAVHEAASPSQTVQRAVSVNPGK
binder,measurement,setting,value
"recombinant wild type FceRIa (extracellular region of the alpha chain of the human high-affinity IgE receptor, spacer, 6His) (receptor, Peptide K (VPQKPK...) begins at V26, so the secreted protein may begin at residue 26; also called WT-FceRIa; wt-FceRIa; not shown: spacer between FceRIa and 6His) PDGVLAVPQKPKVSLNPPWNRIFKGENVTLTCNGNNFFEVSSTKWFHNGSLSEETNSSLNIVNAKFEDSGEYKCQHQQVNESEPVYLEVFSDWLLLQASAEVVMEGQPLFLRCHGWRNWDVYKVIYYKDGEALKYWYENHNISITNATVEDSGTYYCTGKVWQLDYESEPLNITVIKAPREKYWLQHHHHHH",EC50,[1],0.0245 µg/mL
same,Kd,[2],0.473 nM
same,koff,[2],0.00052 s⁻¹
same,kon,[2],1.1e+06 M⁻¹ s⁻¹
"protease resistant A43-FceRIa (K43 to A43 variant of recombinant human FceRIa) (receptor, also called A43 mutant; protease-resistant variant A43-FceRIa; not shown: spacer) chain (part 1 of 2): PDGVLAVPQKPKVSLNPPWNRIFAGENVTLTCNGNNFFEVSSTKWFHNGSLSEETNSSLNIVNAKFEDSGEYKCQHQQVNESEPVYLEVFSDWLLLQASAEVVMEGQPLFLRCHGWRNWDVYKVIYYKDGEALKYWYENHNISITNATVEDSGTYYCTGKVWQLDYESEPLNITVIKAPREKYWLQ chain (part 2 of 2): HHHHHH",EC50,[1],0.0344 µg/mL
same,Kd,[2],0.379 nM
same,koff,[2],0.000492 s⁻¹
same,kon,[2],1.3e+06 M⁻¹ s⁻¹
